# Experimental data taken from US20230235047A1 (Innovent, published 2023).
# Key:
# [1] = target: T1, human CLDN18.2 on cells (CHO-hCLDN18.2, HEK293-hCLDN18.2, KATO III-hCLDN18.2, DAN-G-hCLDN18.2, NUGC-4) (human, UniProt P56856-2 1-261); test: flow cytometry (FACS) on CHO-hCLDN18.2 cells, MFI against Log[Conc.(nM)]; EC50 from the table under the plot
# T1 construct: whole, on cells; NUGC-4 is used untransfected; also called human Claudin18.2
# Procedure: (§1) The binding of each of the above 9 antibodies to the CHO-S cell lines stably transfected with human CLDN18.2 and human CLDN18.1 (i.e., CHO-hCLDN18.2 and CHO-hCLDN18.1 prepared as described in the Examples) obtained in Example 1 was determined by flow cytometry (FACS). Reference was made to Example 2 for the experimental methods. The experimental data were analyzed using GraphPad Prism software, and FIGS. 1 and 2 were obtained.
# [2] = target: T2, human CLDN18.1 on cells (CHO-hCLDN18.1) (human, UniProt P56856 1-261); test: flow cytometry (FACS) on CHO-hCLDN18.1 cells
# T2 construct: whole, on cells; also called human Claudin18.1
# Procedure: as §1
# [3] = target: T3, human Claudin18.2 protein (P50251802, GenScript) (human, UniProt P56856-2 1-261, limits assumed); test: BLI (Fortebio Octet Red96), AHC sensor, antibody and human Claudin18.2 protein (GenScript)
# T3 construct: also called human CLDN18.2
# Procedure: The equilibrium dissociation constant (KD) for binding of the antibodies of the present invention to human CLDN18.2 was determined by bio-layer interferometry (BLI). A BLI affinity assay was conducted according to the existing method (Estep, P et al., High throughput solution based measurement of antibody-antigen affinity and epitope binding. MAbs, 2013.5(2): p. 270-8). The AHC (18-5060, Fortebio) sensor was soaked in SD buffer (lx PBS, BSA 0.1%, Tween-20 0.05%). 100 μL of SD buffer, each antibody and human Claudin18.2 protein (P50251802, GenScript) were added to a 96-well black polystyrene half-area microplate (Greiner, 675076), respectively. The detection was performed using Fortebio Octet Red96, and the KD values were analyzed using Fortebio Octet analysis software.
# [4] = target: T1, human CLDN18.2 on cells (CHO-hCLDN18.2, …); test: flow cytometry (FACS) on CHO-hCLDN18.2 cells, MFI against Log[Conc.(nM)]; EC50 from the table under the plot; remark: listed apart in the source
# Procedure: as §1
# [5] = target: T1, human CLDN18.2 on cells (CHO-hCLDN18.2, …); test: as above; remark: listed apart in the source
# Procedure: as §1
# [6] = target: T1, human CLDN18.2 on cells (CHO-hCLDN18.2, …); test: flow cytometry (FACS) on KATO III-hCLDN18.2 cells, MFI against Log[Conc(nM)]; EC50 from the table under the plot
# Procedure: (§2) Referring to Example 4, the binding of the two antibodies to each of the gastric cancer cell line NUGC-4, the gastric cancer cell line KATO III-hCLDN18.2 and the pancreatic cancer cell line DAN-G-hCLDN18.2 was determined by FACS.
# [7] = target: T3, human Claudin18.2 protein (P50251802, …); test: SPR (Biacore T200), human Claudin18.2 amine-coupled to the chip, antibody 0-100 nM in the mobile phase, 1:1 model
# Procedure: According to the manufacturer's instructions, human Claudin18.2 (GenScrip, P50251802) was coupled to the surface of a CMS chip (GE Healthcare, 29-1496-03) using the amino coupling kit (GE Healthcare, BR-1006-33), and the remaining activation sites were blocked by injection of 1 M ethanolamine after coupling. According to the manufacturer's instructions, the binding and dissociation between the antigen on the chip surface and antibodies in the mobile phase were determined by Biacore (GE Healthcare, T200) to obtain affinity and kinetic constants. The antibodies (0-100 nM) after gradient dilution flowed over the chip surface in an order from low to high concentrations, with the binding time of 180 s and the dissociation time of 600 s. Finally, the chip was regenerated using 10 mM Glycine pH 1.5 (GE Healthcare, BR-1003-54). Kinetic analysis of the data results were performed using Biacore T200 analysis software with a 1:1 binding model.
# [8] = target: T1, human CLDN18.2 on cells (CHO-hCLDN18.2, …); test: flow cytometry (FACS) on the gastric cancer cell line NUGC-4, MFI against Log[Conc(nM)]; EC50 from the table under the plot
# Procedure: as §2
# [9] = target: T1, human CLDN18.2 on cells (CHO-hCLDN18.2, …); test: flow cytometry (FACS) on DAN-G-hCLDN18.2 cells, MFI against Log[Conc (nM)]; EC50 from the table under the plot
# Procedure: as §2
Binder,EC50 [1],binding result [2],Kd [3],EC50 [4],EC50 [5],EC50 [6],Kd [7],koff [7],kon [7],EC50 [8],EC50 [9]
"14A5 (antibody, human IgG1, kappa, V domains shown) VH: QVQLKESGPGLVAPSQSLSITCSVSGFSLNSYGVGWVRQPPGKGLEWLGVIWGDGSTNYHSVLISRLSIRKDNSKSQVFLKLNSLQTDDTATYYCAMITRGNAMDYWGQGTSVTVSS VL: DIVMTQSPSSLTVTAGEKITMSCKSSQSLLNSGNQRNYLTWYQQKPGQTPKLLIYWASTRKSGVPDRFTGSGSGTDFTLTISSVQAEDLAVYSCQNNYLFPLTFGAGTKLELKR",5.49 nM,no binding,0.529 nM,–,–,–,–,–,–,–,–
"3G3 (antibody, human IgG1, kappa, V domains shown) VH: QVQLQQSGPQLVRPGASVKISCKASGYSFTTYWMHWVKQRPGQGLEWIGLIDPSDSETRLNQKFKDKATLTVDKSSSTAYMRLSSPTSEDSAVYYCASNRWLLGWGQGTLVTVSS VL: DIQMIQSPSSLTVTAGEKVTMSCKSSQSLLNSGNQKNYLTWYQQKPGQPPKLLIYWASTRESGVPDRFTGSGSGTDFTLTISSVQTEDLAVYYCQNDYSYPLTFGAGTKLEIKR",9.75 nM,no binding,2.8 nM,–,–,–,–,–,–,–,–
"59C1 (antibody, human IgG1, kappa, V domains shown) VH: QVQLKESGPDLVKPSQSLSLTCTVTGYSITSGYGWNWIRQFPGNKLEWMGYIHFSGSTNYNPSLKSRISITRDTSKNQFFLQLNSVTTEDTATYYCARSGKGNAMDYWGQGTSVTVSS VL: DIQMTQSPSSLTVTAGEKVTMSCKSSQSLLNSGNQKNYLTWYQQKPGQPPKLLIYWASTRESGVPDRFTGSGSGTDFTLTVINMQAEDLALYYCQNDYYFPFTFGSGTKLEIKR",5.7 nM,no binding,1.01 nM,–,–,–,–,–,–,–,–
"25C7 (antibody, human IgG1, kappa, V domains shown) VH: EVMLVESGGGLVQPGGSRKLSCAASGFTFSDYGMAWVRQAPGKGPEWVAFINNLAYSIYYVDTVTGRFTISRENAKDTLYLEMSSLRSEDTALYYCARFTTGNVMDYWGQGTSVTVSS VL: DIVMTQSPSSLTVTAGEKVTMTCKSSQSLLNGGNQKNYLTWYQQKPGQPPKLLIYWSSTRESGVPDRFTGSGSGTDFTLTITSVQAEDLAVYYCQNSYSYPLTFGSGTKLELKR",13.6 nM,no binding,1.46 nM,–,–,–,–,–,–,–,–
"46F6 (antibody, human IgG1, kappa, V domains shown) VH: QVQLKESGPGLVAPSQSLSITCTVSGFSLTDYGVSWIRQPPGKGLEWLGVMWGGGNTYYNSALKSRLSISKDNSKSQVFLKMNSLQSDDTAMYYCAKQRYGGNAMDYWGQGTSVTVSS VL: DIQMTQSPSSLTVTAGEKVTMSCKSSQSLLNSGNQRNYLTWYQQIPGQPPKLLIYWASTRESGVPNRFTGSGSGAEFTLTISSVQTEDLAVYYCQNSYFYPFTFGAGTKLELKR",–,no binding,0.732 nM,5.41 nM,–,–,–,–,–,–,–

# Further lines, results first:
EC50 [1],binding result [2],Kd [3],EC50 [4],EC50 [5],EC50 [6],Kd [7],koff [7],kon [7],EC50 [8],EC50 [9],Binder
3.46 nM,–,2.14 nM,3.12 nM,3.31 nM,–,–,–,–,–,–,"Positive control antibody Zmab (zolbetuximab) (antibody, human IgG1, kappa, V domains shown) VH: QVQLQQPGAELVRPGASVKLSCKASGYTFTSYWINWVKQRPGQGLEWIGNIYPSDSYTNYNQKFKDKATLTVDKSSSTAYMQLSSPTSEDSAVYYCTRSWRGNSFDYWGQGTTLTVSS VL: DIVMTQSPSSLTVTAGEKVTMSCKSSQSLLNSGNQKNYLTWYQQKPGQPPKLLIYWASTRESGVPDRFTGSGSGTDFTLTISSVQAEDLAVYYCQNDYSYPFTFGSGTKLEIKR"
–,no binding,1.03 nM,–,5.88 nM,–,–,–,–,–,–,"38F8 (antibody, human IgG1, kappa, V domains shown) VH: EVQLVESGGGLVKPGGSLKLSCAASGFSFSDYGMHWVRQAPEKGLEWIAYINSGSRTLYYADTVKGRFTISRDNAKNTLFLQMTSLRSEETAMYYCTRNAYYGNAMDYWGQGTSVTVSS VL: DIQMTQSPSSLTVTAGEKVTMSCKSSQSLLNSGNQRNYLTWYQQIPGQPPKLLIYWSSTRGSGVPDRFTGSGSGTDFTLTISSVQAEDLAVYFCQNVYYYPFTFGSGTRLEVKR"
–,no binding,0.946 nM,5.36 nM,–,–,–,–,–,–,–,"69H9 (antibody, human IgG1, kappa, V domains shown) VH: EVQLQQSGPELMKPGASVKISCKATGYSFSSYNIHWVKQSHGKSLEWIGYIAPFNGDSRYNQKFKGKATVTVDKSSSTAYMHLSSLTSEDSAVYYCGRLNRGNSLDYWGQGTSLTVSS VL: DIVMTQSPSSLTVTAGEKVTMSCKSSQSLFNSGNQRNYLTWYQQKPGQPPKLLIYWASTRESGVPDRFTGSGSGTDFTLTISSVQAEDLAFYYCQNNYIYPLTFGAGTKLELKR"
–,–,–,–,–,3.25 nM,0.299 nM,0.000116 s⁻¹,387000 M⁻¹ s⁻¹,2.2 nM,1.79 nM,"Hz69H9 (antibody, human IgG1, kappa, V domains shown) VH: QVQLVQSGAEVKKPGSSVKVSCKASGYSFSSYNIHWVRQAPGQGLEWMGYIAPFQGDSRYNQKFKGRVTITADKSTSTAYMELSSLRSEDTAVYYCARLNRGNSLDYWGQGTLVTVSS VL: DIVMTQSPDSLAVSLGERATINCKSSQSLFNSGNQRNYLTWYQQKPGQPPKLLIYWASTRESGVPDRFSGSGSGTDFTLTISSLQAEDVAVYYCQNNYIYPLTFGGGTKVEIKR"
–,no binding,0.326 nM,–,5.51 nM,0.569 nM,0.72 nM,0.000306 s⁻¹,425000 M⁻¹ s⁻¹,1.08 nM,0.958 nM,"HB37A6 (fully human antibody) (antibody, human IgG1, kappa, V domains shown) VH: EVQLLDSGGGLVQPGGSLRLSCAASGFTFSSYVMSWVRQAPGKGLNWVSTISHSGGSTYYADSVKGRFTISRDNSKNTLYLQMNSLRAEDTAVYYCAIDAPYYDILTGYRYWGQGTLVTVSS VL: not shown"
